From patent US20140212436A1

Tests used:
Experiment in all cases: Biacore
FcγRIIaR (human) = FcγRIIaR (human) (UniProt P12318)
human FcγRI (human) = human FcγRI (human) (UniProt P12314)
[1] = target: recombinant human FcγRIIb protein (human) (UniProt P31994)
[2] = target: human H131 FcγRIIa (human) (UniProt P12318)
Chain of human H131 FcγRIIa (human) (P12318 other isoform, or with tags, fused parts or gaps limits assumed): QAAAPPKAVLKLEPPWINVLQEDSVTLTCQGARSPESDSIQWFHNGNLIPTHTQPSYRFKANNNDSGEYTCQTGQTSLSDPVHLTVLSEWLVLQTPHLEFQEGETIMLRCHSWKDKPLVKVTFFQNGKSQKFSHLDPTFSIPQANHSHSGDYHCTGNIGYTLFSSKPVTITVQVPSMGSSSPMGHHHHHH

Chain of recombinant human FcγRIIb protein (human) (P31994 46-217 limits assumed): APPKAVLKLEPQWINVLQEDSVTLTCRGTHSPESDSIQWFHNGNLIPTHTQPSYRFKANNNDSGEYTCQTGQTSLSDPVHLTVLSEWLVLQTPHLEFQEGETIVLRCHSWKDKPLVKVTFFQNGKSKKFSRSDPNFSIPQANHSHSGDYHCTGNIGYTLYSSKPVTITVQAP
Chain of human FcγRI (human) (P12314 16-288 limits assumed): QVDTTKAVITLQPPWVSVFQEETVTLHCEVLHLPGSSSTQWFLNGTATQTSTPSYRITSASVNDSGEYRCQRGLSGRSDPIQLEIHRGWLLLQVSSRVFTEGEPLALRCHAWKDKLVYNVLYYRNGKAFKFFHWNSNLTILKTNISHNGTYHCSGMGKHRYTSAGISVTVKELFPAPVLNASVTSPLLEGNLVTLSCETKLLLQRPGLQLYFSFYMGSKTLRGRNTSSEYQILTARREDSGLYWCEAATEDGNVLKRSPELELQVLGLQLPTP
Chain of FcγRIIaR (human) (P12318 34-217 H167R limits assumed): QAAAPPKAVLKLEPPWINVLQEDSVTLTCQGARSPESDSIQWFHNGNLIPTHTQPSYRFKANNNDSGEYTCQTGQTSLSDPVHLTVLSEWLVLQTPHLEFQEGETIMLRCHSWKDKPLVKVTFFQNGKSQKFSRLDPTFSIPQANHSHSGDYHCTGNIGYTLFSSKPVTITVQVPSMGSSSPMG

Row | Substance | Fold (FcγRIIaR (human)) | Kd (FcγRIIaR (human)) [nM] | Fold (human FcγRI (human)) | Kd (human FcγRI (human)) [nM] | Fold [1] | Kd [1] [nM] | Fold [2] | Kd [2] [nM]
1 | A327N (antibody) | 0.609 | 1410 | 0.0279 | 11.8 | 0.843 | 1740 |  | 
2 | G236T (antibody) | 0.35 | 2460 | 0.0157 | 21 | 0.00225 | 652000 | 0.486 | 1330
3 | G237A (antibody) | 0.704 | 1220 | 0.0108 | 30.5 | 0.191 | 7680 |  | 
4 | L234F (antibody) | 0.228 | 3760 | 0.0362 | 9.11 | 0.409 | 3590 |  | 
5 | L234G (antibody) | 0.0859 | 10000 |  |  | 0.147 | 10000 |  | 
6 | L234I (antibody) | 0.0554 | 15500 |  |  | 0.108 | 13600 |  | 
7 | L234K (antibody) | 0.00859 | 100000 |  |  | 0.0147 | 100000 |  | 
8 | L234P (antibody) | 0.0141 | 60700 |  |  | 0.0644 | 22800 |  | 
9 | L234Q (antibody) | 0.0372 | 23100 |  |  | 0.147 | 10000 |  | 
10 | L234S (antibody) | 0.693 | 1240 |  |  | 0.192 | 7640 |  | 
11 | L234V (antibody) | 0.134 | 6420 |  |  | 0.456 | 3220 |  | 
12 | L234Y (antibody) | 0.0511 | 16800 |  |  | 0.0237 | 61900 |  | 
13 | L235E (antibody) | 0.333 | 2580 |  |  | 0.55 | 2670 |  | 
14 | L235H (antibody) | 0.756 | 1140 |  |  | 0.734 | 2000 |  | 
15 | L235N (antibody) | 0.0356 | 24100 |  |  | 0.147 | 10000 |  | 
16 | L235P (antibody) | 0.122 | 7010 |  |  | 0.00585 | 251000 |  | 
17 | L235S (antibody) | 0.00859 | 100000 |  |  | 0.0147 | 100000 |  | 
18 | P329E (antibody) | 0.0859 | 10000 |  |  | 0.147 | 10000 |  | 
19 | S239Q (antibody) | 0.853 | 1010 |  |  | 0.729 | 2010 |  | 
20 | S298D (antibody) | 1.45 | 592 |  |  | 0.797 | 1840 |  | 
21 | V266D (antibody) | 0.704 | 1220 |  |  | 0.147 | 10000 |  | 

Substances with a lower Kd [1], results first:

Row | Fold (FcγRIIaR (human)) | Kd (FcγRIIaR (human)) [nM] | Fold (human FcγRI (human)) | Kd (human FcγRI (human)) [nM] | Fold [1] | Kd [1] [nM] | Fold [2] | Kd [2] [nM] | Substance
22 | 0.758 | 1130 | 0.0211 | 15.6 | 1.54 | 953 | 0.167 | 3870 | G236D (antibody)
23 | 26.7 | 32.2 | 0.0685 | 4.81 | 84.8 | 17.3 | 0.217 | 2980 | G236D/S239D/S267E (antibody)
24 | 29.9 | 28.7 | 0.0902 | 3.65 | 110 | 13.4 | 0.103 | 6300 | G236D/S267E/H268E (antibody)
25 | 59.9 | 14.3 | 0.0736 | 4.48 | 149 | 9.87 | 0.0301 | 21500 | G236D/S267E/L328F (antibody)
26 | 3.27 | 263 | 0.0355 | 9.27 | 19.8 | 74.2 |  |  | G236N/S267E (antibody)
27 | 13.6 | 63.1 | 0.0874 | 3.77 | 17 | 86.1 |  |  | G237D/S267E (antibody)
28 | 61.5 | 14 | 0.101 | 3.25 | 40.5 | 36.2 |  |  | G237N/S267E (antibody)
29 | 269 | 3.19 | 2.35 | 0.14 | 221 | 6.63 | 0.993 | 651 | IgG1/2ELLGG_S267E/L328F (antibody)
30 | 10.7 | 80.4 | 0.131 | 2.51 | 15.1 | 97 |  |  | L234E/S267E (antibody)
31 | 174 | 4.93 | 0.0425 | 7.75 | 195 | 7.53 | 0.0725 | 8920 | L234E/S267E/L328F (antibody)
32 | 5.69 | 151 |  |  | 11.4 | 129 |  |  | L234W/G236D/S239E/S267E (antibody)
33 | 98.5 | 8.72 |  |  | 42.3 | 34.7 |  |  | L234W/S239E/S267E (antibody)
34 | 13 | 66.1 | 0.00039 | 854 | 16.7 | 88.1 |  |  | L235D/S267E (antibody)
35 | 133 | 6.45 | 0.00057 | 573 | 80.4 | 18.2 | 0.275 | 2350 | L235D/S267E/L328F (antibody)
36 | 32.5 | 26.4 | 0.0176 | 18.7 | 28.4 | 51.7 | 0.402 | 1610 | L235F/S267E (antibody)
37 | 1.02 | 838 |  |  | 5.58 | 263 |  |  | L235R (antibody)
38 | 3.06 | 281 |  |  | 2.37 | 619 |  |  | L235T/S267E (antibody)
39 | 9.67 | 88.8 |  |  | 25 | 58.7 |  |  | L235Y/G236D/S267E (antibody)
40 | 37.5 | 22.9 | 0.00347 | 95 | 37.2 | 39.4 | 0.941 | 687 | L235Y/S267E (antibody)
41 |  |  |  | 0.326 |  | 6.91 |  | 817 | S239D/S267E/H268E (antibody)
42 | 0.867 | 990 |  |  | 1.45 | 1010 |  |  | S239N (antibody)
43 | 4.64 | 185 |  |  | 5.17 | 284 |  |  | S267E/L328H (antibody)
44 | 74 | 11.6 |  |  | 53.4 | 27.5 |  |  | S267E/L328I (antibody)
45 | 41.5 | 20.7 |  |  | 31.5 | 46.6 |  |  | S267E/N325L (antibody)
46 |  | 517 |  | 0.626 |  | 1450 |  |  | S267G (antibody)
